Measurements published in ChEMBL document CHEMBL4382202, “1-(2-Hydroxybenzoyl)-thiosemicarbazides are promising antimicrobial agents targeting d-alanine-d-alanine ligase in bacterio” (Eur J Med Chem, 2018).

Assays:
[1] = compound: O=C(NNC(=S)Nc1ccc(Cl)c(Cl)c1)c1ccccc1O; test: Inhibition of Enterococcus faecalis JH2-2 C-terminal 6His-tagged DdlB expressed in Escherichia coli LMG194 assessed as Vmax of ATP at 1 uM by Biomol Green reagent assay (reference value: 89.05 +/- 5.41 microM/min)
[2] = compound: O=C(NNC(=S)Nc1ccc(Cl)c(Cl)c1)c1ccccc1O; test: Inhibition of Enterococcus faecalis JH2-2 C-terminal 6His-tagged DdlB expressed in Escherichia coli LMG194 assessed as Km of D-Ala at 10 uM by Biomol Green reagent assay (reference value: 5.62 mM)
[3] = compound: O=C(NNC(=S)Nc1ccc(Cl)c(Cl)c1)c1ccccc1O; test: Inhibition of Enterococcus faecalis JH2-2 C-terminal 6His-tagged DdlB expressed in Escherichia coli LMG194 assessed as Km2 of D-Ala using 500 uM ATP by Biomol Green reagent assay
[4] = compound: O=C(NNC(=S)Nc1ccc(Cl)c(Cl)c1)c1ccccc1O; test: Inhibition of Enterococcus faecalis JH2-2 C-terminal 6His-tagged DdlB expressed in Escherichia coli LMG194 assessed as Vmax of D-Ala at 1 uM by Biomol Green reagent assay (reference value: 61.95 +/- 1.11 microM/min)
[5] = compound: O=C(NNC(=S)Nc1ccc(Cl)c(Cl)c1)c1ccccc1O; test: Inhibition of Enterococcus faecalis JH2-2 C-terminal 6His-tagged DdlB expressed in Escherichia coli LMG194 assessed as Km1 of D-Ala using 500 uM ATP by Biomol Green reagent assay
[6] = compound: O=C(NNC(=S)Nc1ccc(Cl)c(Cl)c1)c1ccccc1O; test: Inhibition of Enterococcus faecalis JH2-2 C-terminal 6His-tagged DdlB expressed in Escherichia coli LMG194 assessed as Km of ATP using 50 mM D-Ala substrate by Biomol Green reagent assay
[7] = compound: O=C(NNC(=S)Nc1ccc(Cl)c(Cl)c1)c1ccccc1O; test: Inhibition of Enterococcus faecalis JH2-2 C-terminal 6His-tagged DdlB expressed in Escherichia coli LMG194 assessed as Vmax of ATP at 10 uM by Biomol Green reagent assay (reference value: 89.05 +/- 5.41 microM/min)
[8] = compound: O=C(NNC(=S)Nc1ccc(Cl)c(Cl)c1)c1ccccc1O; test: Inhibition of Enterococcus faecalis JH2-2 C-terminal 6His-tagged DdlB expressed in Escherichia coli LMG194 assessed as Vmax of D-Ala at 10 uM by Biomol Green reagent assay (reference value: 61.95 +/- 1.11 microM/min)
[9] = compound: O=C(NNC(=S)Nc1ccc(Cl)c(Cl)c1)c1ccccc1O; test: Inhibition of Enterococcus faecalis JH2-2 C-terminal 6His-tagged DdlB expressed in Escherichia coli LMG194 assessed as Km of D-Ala at 1 uM by Biomol Green reagent assay (reference value: 5.62 mM)

B1: D-alanine--D-alanine ligase (Enterococcus faecalis (strain ATCC 700802 / V583)), Q47758 (protein)
chain: MKIILLYGGRSEEHDVSVLSAYSVLNAIYYKYYQVQLVFISKDGQWVKGPLLSERPQNKEVLHLTWAQTPEETGEFSGKRISPSEIYEEEAIVFPVLHGPNGEDGTIQGFMETINMPYVGAGVLASANAMDKIMTKYLLQTVGIPQVPFVPVLRSDWKGNPKEVFEKCEGSLIYPVFVKPANMGSSVGISKVENREELQEALEEAFRYDARAIVEQGIEAREIEVAILGNEDVRTTLPGEVVKDVAFYDYDAKYINNTIEMQIPAHVPEEVAHQAQEYAKKAYIMLDGSGLSRCDFFLTSKNELFLNELNTMPGFTDFSMYPLLWENMGLKYSDLIEELIQLALNRFK
Work on B1 yielded a Vmax [1] of 72.1 µM/min, a Km [2] of 9.63 mM and a Km [3] of 10.5 mM. It also gave a Vmax [4] of 48.6 µM/min, a Km [5] of 0.487 mM and a Km [6] of 0.691 mM. It also gave a Vmax [7] of 23.5 µM/min, a Vmax [8] of 45.1 µM/min and a Km [9] of 7.01 mM.
